Tests used:
[1] = biological target: Cad11-12 truncated Bt-R1a cadherin expressed in S2 cells (Manduca sexta); assay: 125I-Cry1Ab saturation binding on S2 cell suspensions
[2] = biological target: Cad7-12 truncated Bt-R1a cadherin expressed in S2 cells (Manduca sexta); assay: 125I-Cry1Ab toxin binding saturation assay on S2 cells; concentration of receptors
[3] = biological target: Cad12 truncated Bt-R1a cadherin expressed in S2 cells (Manduca sexta); assay: as above
[4] = biological target: Cad11-12 truncated Bt-R1a cadherin expressed in S2 cells (Manduca sexta); assay: as above
[5] = biological target: Manduca sexta cadherin Bt-R1a, full length, expressed in Drosophila S2 cells (Manduca sexta); assay: as above
[6] = biological target: Cad12 truncated Bt-R1a cadherin expressed in S2 cells (Manduca sexta); assay: 125I-Cry1Ab toxin binding saturation assay on S2 cells; dissociation constant (Kcom)
[7] = biological target: Cad11-12 truncated Bt-R1a cadherin expressed in S2 cells (Manduca sexta); assay: as above
[8] = biological target: Manduca sexta cadherin Bt-R1a, full length, expressed in Drosophila S2 cells (Manduca sexta); assay: as above

Cry1Ab toxin (ligand) showed a fold higher concentration of binding sites than Cad12 [1] of 3 fold, a Bmax (fmoles/mg protein) [2] of 506 and a Bmax (fmoles/mg protein) [3] of 1410. It also gave a Bmax (fmoles/mg protein) [4] of 3320, a Bmax (fmoles/mg protein) [5] of 625 and a Kd [6] of 2.87 nM. It also gave a Kd [7] of 3.52 nM and a Kd [8] of 3.55 nM.

— patent publication US20050283857A1
